Assay [1] has as its target Axl (UniProt P30530). Briefly: ELISA, 1:3 dilution.
The target of assay [2] is T1, Axl (Homo sapiens, UniProt P30530).
T1 sequence (P30530 26-451 limits assumed): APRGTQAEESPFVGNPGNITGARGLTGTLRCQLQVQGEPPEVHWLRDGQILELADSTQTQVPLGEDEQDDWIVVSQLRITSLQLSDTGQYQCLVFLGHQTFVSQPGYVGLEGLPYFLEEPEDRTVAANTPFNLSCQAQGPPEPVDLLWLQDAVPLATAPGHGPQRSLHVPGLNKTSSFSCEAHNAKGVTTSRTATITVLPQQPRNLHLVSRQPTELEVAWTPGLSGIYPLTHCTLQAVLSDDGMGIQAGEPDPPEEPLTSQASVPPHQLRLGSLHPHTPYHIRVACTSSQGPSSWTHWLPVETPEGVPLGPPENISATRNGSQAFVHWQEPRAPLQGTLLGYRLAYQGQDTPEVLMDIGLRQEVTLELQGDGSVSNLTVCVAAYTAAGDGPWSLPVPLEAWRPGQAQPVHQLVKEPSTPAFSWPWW
The experiment in a line: Affinity ELISA of CPE mutant antibodies for binding to Axl at pH 6.0 over pH 7.4. To be noted: for Affinity ELISA CPE mutant ratio (1:3, pH 6.0/7.4): 1:3 dilution; for Affinity ELISA CPE mutant ratio (1:9, pH 6.0/7.4): 1:9 dilution. From the text:
The DNA encoding the wild-type antibody was evolved to generate a mutant antibody library using Comprehensive Positional Evolution (CPE), which each position in the template antibody is randomized one at a time. Each mutant antibody in the library has only one single point mutation. The mutant antibodies in the library were generated by simultaneously screening for selective binding affinity to Axl at pH 6.0 over pH 7.4 by ELISA. Two mutant antibody dilutions were used: 1:3 and 1:9 dilutions. The mutant antibodies that have at least 1.5 ratio of binding affinity at pH 6.0 to at pH 7.4 under either 1:3 or 1:9 dilution are selected as conditionally active antibodies, with the single point mutations indicated in each of the heavy chain and light chain variable region (Tables 1 and 2).
A wild-type antibody to Axl was selected as the template antibody (with a heavy chain variable region of 063-hum10F10-HC in FIG. 1A and a light chain variable region of […]). The DNA encoding the wild-type antibody was evolved to generate a mutant antibody library using Comprehensive Positional Evolution (CPE), a method by which each position in the template antibody is randomized one at a time. Each mutant antibody in the library has only one single point mutation. The mutant antibodies in the library were generated by simultaneously screening for selective binding affinity to Axl at pH 6.0 over pH 7.4 as determined by ELISA.
Simultaneously, the expression level of the mutant antibodies was also optimized for the purpose of higher fields in a manufacturing process. The screening was done in serum using a FLAG tag because there were human antibodies in the serum which might cause false positives for the screening. The screening buffer was a carbonate buffer (Krebs buffer with ringer-standard buffer but different from PBS). […] Some of the selected mutant antibodies (scFv) were represented in FIG. 2 with their higher activity at pH 6.0 than at pH 7.4, while their activity ratios between pH 6.0 to pH 7.4 were at least 11 fold (FIG. 3).

For assay [3], the target named is Axl (UniProt P30530). The experiment in a line: ELISA, 1:9 dilution.
The mark [4] stands for this setting: heavy chain variable region mutants.
[5] abbreviates: light chain variable region mutants.

B1: HC-T030A (antibody, V domains shown)
VH: EVQLVQSGAEVKKPGATVKISCKVSGYSFAGHTMNWIRQPPGKGLEWIGLIKPSNGGTSYNQKFKGRVTISADKSISTAYLQWSSLKASDTAMYYCAHGHYESYFAMDYWGQGTLVTVSS
VL: DIQMTQSPSSLSASVGDRVTITCKASQDVSSAVAWYQQKPGQAPRLLIYWASTRHTGVPSRFSGSGSGTEFTLTISSLQPDDFATYYCQEHFSTPLTFGQGTKVEIK
In the case of B1, the Affinity ELISA CPE mutant ratio (1:3, pH 6.0/7.4) with Axl [1] is 1.29; with Axl [2] (setting [4]) it was 1.292. For the same molecule, the “Affinity ELISA CPE mutant ratio (1:9, pH 6.0/7.4)” value with Axl [2] (setting [4]) stood at 1.762; in the assay with Axl [3], 1.76.

B2: HC-W110H (antibody, V domains shown)
VH: EVQLVQSGAEVKKPGATVKISCKVSGYSFTGHTMNWIRQPPGKGLEWIGLIKPSNGGTSYNQKFKGRVTISADKSISTAYLQWSSLKASDTAMYYCAHGHYESYFAMDYHGQGTLVTVSS
VL: DIQMTQSPSSLSASVGDRVTITCKASQDVSSAVAWYQQKPGQAPRLLIYWASTRHTGVPSRFSGSGSGTEFTLTISSLQPDDFATYYCQEHFSTPLTFGQGTKVEIK
As for B2, the Affinity ELISA CPE mutant ratio (1:3, pH 6.0/7.4) with Axl [1] came out at 7.99; in the assay with Axl [2] (setting [4]) it was 7.993. Moreover, the “Affinity ELISA CPE mutant ratio (1:9, pH 6.0/7.4)” value with Axl [2] (setting [4]) and with Axl [3] was 0.932 in each case.

B3: HC-E102N (antibody, V domains shown)
VH: EVQLVQSGAEVKKPGATVKISCKVSGYSFTGHTMNWIRQPPGKGLEWIGLIKPSNGGTSYNQKFKGRVTISADKSISTAYLQWSSLKASDTAMYYCAHGHYNSYFAMDYWGQGTLVTVSS
VL: DIQMTQSPSSLSASVGDRVTITCKASQDVSSAVAWYQQKPGQAPRLLIYWASTRHTGVPSRFSGSGSGTEFTLTISSLQPDDFATYYCQEHFSTPLTFGQGTKVEIK
Regarding B3, the Affinity ELISA CPE mutant ratio (1:3, pH 6.0/7.4) with Axl [1] is 1.52; with Axl [2] (setting [4]), 1.520. For the same molecule, the “Affinity ELISA CPE mutant ratio (1:9, pH 6.0/7.4)” value with Axl [2] (setting [4]) was found to be 1.567; with Axl [3], 1.57.

B4: LC-H091Y (antibody, V domains shown)
VH: EVQLVQSGAEVKKPGATVKISCKVSGYSFTGHTMNWIRQPPGKGLEWIGLIKPSNGGTSYNQKFKGRVTISADKSISTAYLQWSSLKASDTAMYYCAHGHYESYFAMDYWGQGTLVTVSS
VL: DIQMTQSPSSLSASVGDRVTITCKASQDVSSAVAWYQQKPGQAPRLLIYWASTRHTGVPSRFSGSGSGTEFTLTISSLQPDDFATYYCQEYFSTPLTFGQGTKVEIK
For B4, the values for the Affinity ELISA CPE mutant ratio (1:3, pH 6.0/7.4) in the assay with Axl [1] and with Axl [2] (setting [5]) were 3.93 and 3.931, respectively. In addition, the results for the “Affinity ELISA CPE mutant ratio (1:9, pH 6.0/7.4)” value with Axl [2] (setting [5]) and with Axl [3] were 5.126 and 5.13, respectively.

B5: LC-V029N (antibody, V domains shown)
VH: EVQLVQSGAEVKKPGATVKISCKVSGYSFTGHTMNWIRQPPGKGLEWIGLIKPSNGGTSYNQKFKGRVTISADKSISTAYLQWSSLKASDTAMYYCAHGHYESYFAMDYWGQGTLVTVSS
VL: DIQMTQSPSSLSASVGDRVTITCKASQDNSSAVAWYQQKPGQAPRLLIYWASTRHTGVPSRFSGSGSGTEFTLTISSLQPDDFATYYCQEHFSTPLTFGQGTKVEIK
Take B5: the Affinity ELISA CPE mutant ratio (1:3, pH 6.0/7.4) was 2.6 in the assay with Axl [1] and 2.595 with Axl [2] (setting [5]). The “Affinity ELISA CPE mutant ratio (1:9, pH 6.0/7.4)” value with Axl [2] (setting [5]) came out at 2.652; with Axl [3] it was 2.65.

B6: LC-V029G (antibody, V domains shown)
VH: EVQLVQSGAEVKKPGATVKISCKVSGYSFTGHTMNWIRQPPGKGLEWIGLIKPSNGGTSYNQKFKGRVTISADKSISTAYLQWSSLKASDTAMYYCAHGHYESYFAMDYWGQGTLVTVSS
VL: DIQMTQSPSSLSASVGDRVTITCKASQDGSSAVAWYQQKPGQAPRLLIYWASTRHTGVPSRFSGSGSGTEFTLTISSLQPDDFATYYCQEHFSTPLTFGQGTKVEIK
On to B6, for which the Affinity ELISA CPE mutant ratio (1:3, pH 6.0/7.4) in the assay with Axl [1] is 1.94; with Axl [2] (setting [5]), 1.939. Also, the “Affinity ELISA CPE mutant ratio (1:9, pH 6.0/7.4)” value is 1.803 with Axl [2] (setting [5]) and 1.8 in the assay with Axl [3].

B7: LC-V029D (antibody, V domains shown)
VH: EVQLVQSGAEVKKPGATVKISCKVSGYSFTGHTMNWIRQPPGKGLEWIGLIKPSNGGTSYNQKFKGRVTISADKSISTAYLQWSSLKASDTAMYYCAHGHYESYFAMDYWGQGTLVTVSS
VL: DIQMTQSPSSLSASVGDRVTITCKASQDDSSAVAWYQQKPGQAPRLLIYWASTRHTGVPSRFSGSGSGTEFTLTISSLQPDDFATYYCQEHFSTPLTFGQGTKVEIK
Consider B7, for which the Affinity ELISA CPE mutant ratio (1:3, pH 6.0/7.4) amounted to 2.88 in the assay with Axl [1] and 2.882 in the assay with Axl [2] (setting [5]). Also, the entries for the “Affinity ELISA CPE mutant ratio (1:9, pH 6.0/7.4)” value with Axl [2] (setting [5]) and in the assay with Axl [3] were 2.679 and 2.68, respectively.

B8: LC-V029W (antibody, V domains shown)
VH: EVQLVQSGAEVKKPGATVKISCKVSGYSFTGHTMNWIRQPPGKGLEWIGLIKPSNGGTSYNQKFKGRVTISADKSISTAYLQWSSLKASDTAMYYCAHGHYESYFAMDYWGQGTLVTVSS
VL: DIQMTQSPSSLSASVGDRVTITCKASQDWSSAVAWYQQKPGQAPRLLIYWASTRHTGVPSRFSGSGSGTEFTLTISSLQPDDFATYYCQEHFSTPLTFGQGTKVEIK
Take B8: the Affinity ELISA CPE mutant ratio (1:3, pH 6.0/7.4) with Axl [1] was 2.31; with Axl [2] (setting [5]), 2.310. Also, the “Affinity ELISA CPE mutant ratio (1:9, pH 6.0/7.4)” value came out at 2.353 in the assay with Axl [2] (setting [5]) and 2.35 in the assay with Axl [3].

B9: LC-H091T (antibody, V domains shown)
VH: EVQLVQSGAEVKKPGATVKISCKVSGYSFTGHTMNWIRQPPGKGLEWIGLIKPSNGGTSYNQKFKGRVTISADKSISTAYLQWSSLKASDTAMYYCAHGHYESYFAMDYWGQGTLVTVSS
VL: DIQMTQSPSSLSASVGDRVTITCKASQDVSSAVAWYQQKPGQAPRLLIYWASTRHTGVPSRFSGSGSGTEFTLTISSLQPDDFATYYCQETFSTPLTFGQGTKVEIK
For B9, the values for the Affinity ELISA CPE mutant ratio (1:3, pH 6.0/7.4) in the assay with Axl [1] and with Axl [2] (setting [5]) were 3.78 and 3.779, respectively. For the same molecule, the “Affinity ELISA CPE mutant ratio (1:9, pH 6.0/7.4)” value in the assay with Axl [2] (setting [5]) is 3.781; with Axl [3], 3.78.

B10: LC-H091V (antibody, V domains shown)
VH: EVQLVQSGAEVKKPGATVKISCKVSGYSFTGHTMNWIRQPPGKGLEWIGLIKPSNGGTSYNQKFKGRVTISADKSISTAYLQWSSLKASDTAMYYCAHGHYESYFAMDYWGQGTLVTVSS
VL: DIQMTQSPSSLSASVGDRVTITCKASQDVSSAVAWYQQKPGQAPRLLIYWASTRHTGVPSRFSGSGSGTEFTLTISSLQPDDFATYYCQEVFSTPLTFGQGTKVEIK
For B10, the results for the Affinity ELISA CPE mutant ratio (1:3, pH 6.0/7.4) with Axl [1] and with Axl [2] (setting [5]) were 4.13 and 4.133, respectively. Further, the “Affinity ELISA CPE mutant ratio (1:9, pH 6.0/7.4)” value with Axl [2] (setting [5]) came out at 1.171; with Axl [3], 1.17.

B11: HC-N035I (antibody, V domains shown)
VH: EVQLVQSGAEVKKPGATVKISCKVSGYSFTGHTMIWIRQPPGKGLEWIGLIKPSNGGTSYNQKFKGRVTISADKSISTAYLQWSSLKASDTAMYYCAHGHYESYFAMDYWGQGTLVTVSS
VL: DIQMTQSPSSLSASVGDRVTITCKASQDVSSAVAWYQQKPGQAPRLLIYWASTRHTGVPSRFSGSGSGTEFTLTISSLQPDDFATYYCQEHFSTPLTFGQGTKVEIK
In the case of B11, the Affinity ELISA CPE mutant ratio (1:3, pH 6.0/7.4) in the assay with Axl [1] was found to be 2.81; with Axl [2] (setting [4]), 2.814. The “Affinity ELISA CPE mutant ratio (1:9, pH 6.0/7.4)” value with Axl [2] (setting [4]) came out at 1.121; with Axl [3], 1.12.

B12: LC-H091S (antibody, V domains shown)
VH: EVQLVQSGAEVKKPGATVKISCKVSGYSFTGHTMNWIRQPPGKGLEWIGLIKPSNGGTSYNQKFKGRVTISADKSISTAYLQWSSLKASDTAMYYCAHGHYESYFAMDYWGQGTLVTVSS
VL: DIQMTQSPSSLSASVGDRVTITCKASQDVSSAVAWYQQKPGQAPRLLIYWASTRHTGVPSRFSGSGSGTEFTLTISSLQPDDFATYYCQESFSTPLTFGQGTKVEIK
With B12, the Affinity ELISA CPE mutant ratio (1:3, pH 6.0/7.4) in the assay with Axl [1] was 1.76; with Axl [2] (setting [5]), 1.758. Also, the “Affinity ELISA CPE mutant ratio (1:9, pH 6.0/7.4)” value with Axl [2] (setting [5]) was determined as 1.336; in the assay with Axl [3], 1.34.

The values are drawn from patent US20250276075A1, “METHODS OF TREATING AXL-EXPRESSING CANCERS WITH ANTI-AXL ANTIBODIES, ANTIBODY FRAGMENTS AND THEIR IMMUNOCONJUGATES” (BIOATLA, INC., priority 2020, published 2025).
